Positions count from the first letter of the chain named.

We go through 16 molecules from paper doi:10.1101/2025.11.17.685403.

T1: RFS1 (cShu subunit);RIP1 (cShu subunit);SWS1 (cShu subunit) (Caenorhabditis elegans;Caenorhabditis …, UniProt P34348;Q21621;Q8MYM5 1-245;1-209;1-191, ||)
T1 sequence 1: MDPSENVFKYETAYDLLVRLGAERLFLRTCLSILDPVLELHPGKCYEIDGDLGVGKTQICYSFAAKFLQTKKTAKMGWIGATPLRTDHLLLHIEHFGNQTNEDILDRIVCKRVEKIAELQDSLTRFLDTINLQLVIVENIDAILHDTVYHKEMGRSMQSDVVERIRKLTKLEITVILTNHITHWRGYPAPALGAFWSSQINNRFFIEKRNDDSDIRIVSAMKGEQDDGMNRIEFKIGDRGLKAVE
T1 sequence 2: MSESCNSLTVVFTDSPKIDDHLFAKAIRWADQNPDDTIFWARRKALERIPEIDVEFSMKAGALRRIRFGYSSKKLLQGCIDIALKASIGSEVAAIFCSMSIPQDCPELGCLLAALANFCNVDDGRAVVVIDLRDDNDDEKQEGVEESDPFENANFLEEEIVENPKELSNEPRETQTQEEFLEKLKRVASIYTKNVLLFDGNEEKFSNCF
T1 sequence 3: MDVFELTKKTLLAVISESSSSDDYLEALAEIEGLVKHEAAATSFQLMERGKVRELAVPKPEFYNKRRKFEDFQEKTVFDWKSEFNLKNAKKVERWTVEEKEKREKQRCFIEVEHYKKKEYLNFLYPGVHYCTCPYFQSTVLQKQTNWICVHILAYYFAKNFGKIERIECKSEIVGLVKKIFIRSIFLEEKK

T2: RFS1 E138A (Walker B);RIP1 (cShu subunit);SWS1 (cShu subunit) (Caenorhabditis elegans;Caenorhabditis …, UniProt P34348;Q21621;Q8MYM5 1-245;1-209;1-191, E138A||)
T2 sequence 1: T1 sequence 1 with E138A
T2 sequence 2: T1 sequence 2
T2 sequence 3: T1 sequence 3

T3: RFS1 K56A (Walker A);RIP1 (cShu subunit);SWS1 (cShu subunit) (Caenorhabditis elegans;Caenorhabditis …, UniProt P34348;Q21621;Q8MYM5 1-245;1-209;1-191, K56A||)
T3 sequence 1: T1 sequence 1 with K56A
T3 sequence 2: T1 sequence 2
T3 sequence 3: T1 sequence 3

B1: 3'-overhang (10 nt) (mixed)
DNA 1: ACTGCCCTTACAGCACAGCGGTTTTTTTTTT
DNA 2: CCGCTGTGCTGTAAGGGCAGT
B2: Fork (10 nt) (mixed)
DNA 1: B1 DNA 1
DNA 2: TTTTTTTTTTCCGCTGTGCTGTAAGGGCAGT
B3: 5'-overhang (10 nt) (mixed)
DNA 1: ACTGCCCTTACAGCACAGCGG
DNA 2: B2 DNA 2
B4: 3'-overhang (5 nt) (mixed)
DNA 1: ACTGCCCTTACAGCACAGCGGTTTTT
DNA 2: CCGCTGTGCTGTAAGGGCAGT
B5: 5'-overhang (5 nt) (mixed)
DNA 1: ACTGCCCTTACAGCACAGCGG
DNA 2: TTTTTCCGCTGTGCTGTAAGGGCAGT
B6: ds26 (dsDNA)
DNA 1: ACTGCCCTTACAGCACAGCGGTTTTT
DNA 2: AAAAACCGCTGTGCTGTAAGGGCAGT
B7: ds21 (dsDNA)
DNA 1: ACTTACAGCACAGCGGTTTTT
DNA 2: AAAAACCGCTGTGCTGTAAGT
B8: Fork (5 nt) (mixed)
DNA 1: ACTGCCCTTACAGCACAGCGGTTTTT
DNA 2: TTTTTCCGCTGTGCTGTAAGGGCAGT
B9: 5'-overhang (20 nt) (mixed)
DNA 1: TTTTTTTTTTTTTTTTTTTTCTTGACAAGCTTGCGCACT
DNA 2: AGTGCGCAAGCTTGTCAAG
B10: Fork (20 nt) (mixed)
DNA 1: B9 DNA 1
DNA 2: AGTGCGCAAGCTTGTCAAGGCACTTTTTTTTTTTTTTTT
B11: ds39 (dsDNA)
DNA 1: B9 DNA 1
DNA 2: AGTGCGCAAGCTTGTCAAGAAAAAAAAAAAAAAAAAAAA
B12: 3'-overhang (20 nt) (mixed)
DNA 1: CTTGACAAGCTTGCGCACT
DNA 2: B10 DNA 2

The target of the first data set is T1, RFS1 (cShu subunit);RIP1 (cShu …). As to the kind of experiment: fluorescence polarization. (Fluorescence polarisation rises when a labelled molecule tumbles more slowly, as on binding a larger partner.)
With ACTGCCCTTACAGCACAGCGGTTTTTTTTTT (ssDNA) [ss31], the Kd was 3200 ± 300 nM.

As to B1, the binding result is given as “no binding”.

Consider B2, for which the binding result is “no binding”.

With ACTTACAGCACAGCGGTTTTT (ssDNA) [ss21], the binding result is reported as “no binding”.

Take B3: the binding result was “no binding”.

Regarding ACTGCCCTTACAGCACAGCGGTTTTT (ssDNA) [ss26], the Kd was determined as 4200 ± 400 nM.

Take B4: the binding result was “no binding”.

B5: the binding result is “no binding”.

Consider B6, for which the binding result is given as “no binding”.

Consider B7, for which the binding result is given as “no binding”.

For B8, the binding result is “no binding”.

A further data set addresses T2, RFS1 E138A (Walker B);RIP1 (cShu …). As to the kind of experiment: fluorescence polarization.
As to B9, the Kd was found to be 760 ± 40 nM.

B10 gave a Kd of 140 ± 10 nM.

Turning to TTTTTTTTTTTTTTTTTTTTCTTGACAAGCTTGCGCACT (ssDNA) [ss39], the Kd turned out to be 1000 ± 20 nM.

A further data set concerns the target T3, RFS1 K56A (Walker A);RIP1 (cShu …). The data set can be described thus: fluorescence polarization.
For B9, the Kd amounted to 3900 ± 400 nM.

For B10, the Kd is 2680 ± 80 nM.

For the molecule TTTTTTTTTTTTTTTTTTTTCTTGACAAGCTTGCGCACT (ssDNA) [ss39], the Kd is 3000 ± 100 nM.

In the next data set the target is T1, RFS1 (cShu subunit);RIP1 (cShu …). As to the kind of experiment: fluorescence polarization. The source holds these as a separate data set.
On to B9, for which the Kd was determined as 695 ± 3 nM.

In the case of B10, the affinity, expressed as Kd, was 210 ± 20 nM.

The molecule TTTTTTTTTTTTTTTTTTTTCTTGACAAGCTTGCGCACT (ssDNA) [ss39] had a Kd of 1000 ± 100 nM.

In another data set the target is T2, RFS1 E138A (Walker B);RIP1 (cShu …). The data set can be described thus: fluorescence polarization. This is another data set of the same source.
Molecule B9 had a Kd of 1200 ± 100 nM.

Molecule B10 displayed a Kd of 380 ± 30 nM.

As for TTTTTTTTTTTTTTTTTTTTCTTGACAAGCTTGCGCACT (ssDNA) [ss39], the Kd came to 2200 ± 100 nM.

The target in the next data set is T3, RFS1 K56A (Walker A);RIP1 (cShu …). The data set can be described thus: fluorescence polarization. This is another data set of the same source.
For the molecule B9, binding was characterised by a dissociation constant (Kd) of 4700 ± 200 nM.

The molecule B10 displayed a Kd of 2500 ± 100 nM. This Kd lies about 1.9-fold lower than the previous one.

Regarding TTTTTTTTTTTTTTTTTTTTCTTGACAAGCTTGCGCACT (ssDNA) [ss39], the Kd turned out to be 3300 ± 100 nM. The Kd values of the last two molecules are within 1.5-fold of each other.

A further data set has as its target T1, RFS1 (cShu subunit);RIP1 (cShu …). As to the kind of experiment: fluorescence polarization. This is another data set of the same source.
Molecule B9 returned a Kd of 3800 ± 300 nM.

Take B10: the Kd is 500 ± 20 nM. This Kd lies about 7.6-fold lower than the previous one.

The molecule TTTTTTTTTTTTTTTTTTTTCTTGACAAGCTTGCGCACT (ssDNA) [ss39] displayed a Kd of 2900 ± 300 nM.

The target in another data set is T2, RFS1 E138A (Walker B);RIP1 (cShu …). As to the kind of experiment: fluorescence polarization. The source holds these as a separate data set.
In turn, B9 gave a Kd of 3900 ± 100 nM.

Consider B10, for which the Kd came out at 1900 ± 200 nM.

With TTTTTTTTTTTTTTTTTTTTCTTGACAAGCTTGCGCACT (ssDNA) [ss39], the affinity, expressed as Kd, was 2700 ± 200 nM.

With B11, the binding result is recorded as “no binding”.

A further data set has as its target T3, RFS1 K56A (Walker A);RIP1 (cShu …). As to the kind of experiment: fluorescence polarization. This is another data set of the same source.
As to B9, the Kd was found to be 4500 ± 300 nM.

Take B10: the Kd stood at 2500 ± 300 nM. This Kd is about 1.8-fold lower than that of the molecule before.

For the molecule TTTTTTTTTTTTTTTTTTTTCTTGACAAGCTTGCGCACT (ssDNA) [ss39], the Kd was 3300 ± 200 nM.

As for B11, the binding result is on record as “no binding”.

The target in a further data set is T1, RFS1 (cShu subunit);RIP1 (cShu …). As to the kind of experiment: fluorescence polarization. The source holds these as a separate data set.
The molecule B9 yielded a Kd of 4200 ± 500 nM.

Molecule B10 returned a Kd of 2800 ± 300 nM. This Kd is about 1.5-fold lower than that of the molecule before.

TTTTTTTTTTTTTTTTTTTTCTTGACAAGCTTGCGCACT (ssDNA) [ss39]: the dissociation constant Kd amounted to 2900 ± 100 nM.

With B11, the binding result is given as “no binding”.

For B12, the binding result is recorded as “no binding”.

For orientation: Kd means the equilibrium constant for the complex coming apart. Low values mean higher affinity, high ones lower affinity.
